The results in this text go back to paper PMC6571972 (Pharmaceutics, 2019).

A short description of one series: in vivo. The following applies: mouse.
A further series has as its system AtT20 tumors. The experiment in a line: in vivo antitumor efficacy. Set-up: species or system BALB/c nude mice. The note with it: 5 mg/kg i.v. once weekly for three weeks, AtT20 tumor-bearing mice. Here is the method:
Figure S1. Confocal microscopy images from conjugate 10 in SSTR2 positive cell line […]
Animal experiments were approved by the Committee for Animal Experiments of the […]
For in vivo tumor targeting and antitumor efficacy experiments, three million AtT20/D16v-F2 murine pituitary tumor cells in 100 µL PBS/Matrigel (v/v) were xenografted in the right flank of four-weeks-old female BALB/c nude mice (BALB/cAnNRj-Foxn1nu/nu, Janvier Labs). The experiments started around 15 days after implantation, when the animals started to show physical signs of the hormone releasing […]
In vivo antitumor efficacy
Animals bearing AtT20 tumors were randomized in three treatment groups (n=9) and injected intravenously with 5 mg/kg of conjugate 8 in 2% DMSO in water or a mix of […]
Treatment was given once a week for a total of three weeks. Vehicle treatment was used as control. Mice were weighed, and the tumor sizes were monitored with an electronic caliper. Tumor volume was calculated using the ellipsoid formula ν = π/6ꞏxꞏyꞏz.
Figure S2. In vivo antitumor efficacy of conjugate 8 compared to vehicle and unconjugated mix of cryptophycin and octreotide (left), and body weight quantification during treatment (right). […]

A short description of series [1]: pharmacokinetics after i.v. injection. The series is classed as in vivo. The following applies: 2.5 mg/kg i.v., heterozygous NCR mice. Here is the method: Pharmacokinetics: To evaluate the pharmacokinetic profile of conjugate 8 and its fluorescence-labeled analogue 10, four-weeks-old female heterozygous NCR mice from Charles River were used. Animals were intravenously injected with 2.5 mg/kg (in 2% DMSO in water, dosed at 0.5 mg/mL) of each conjugate. Terminal blood samples were collected via cardiac puncture from animals under deep anesthesia at different time points (5, 15, 30, 60, 180, and 360 min, n = 3). The samples were rapidly transferred to lithium heparin-coated tubes, kept on ice, and subsequently centrifuged at 2000 ×g, 4 °C for 10 min. After centrifugation, plasma was collected and the samples were kept at -20 °C until analyses.

Take `COc1ccc(C[C@H]2NC(=O)/C=C/C[C@@H]([C@H](C)[C@@H](OC(=O)CNC(=O)[C@@H]3CCCN3C(=O)CNC(=O)[C@H](CCCNC(N)=O)NC(=O)[C@@H](NC(=O)CCOCCOCCOCCOCCn3cc(CCC(=O)N[C@H](Cc4ccccc4)C(=O)N[C@H]4CSSC[C@@H](C(=O)N[C@H](CO)[C@@H](C)O)NC(=O)[C@H]([C@@H](C)O)NC(=O)[C@H](CCCCN)NC(=O)[C@@H](Cc5c[nH]c6ccccc56)NC(=O)[C@H](Cc5ccccc5)NC4=O)nn3)C(C)C)[C@@H](Cl)c3ccccc3)OC(=O)[C@H](CC(C)C)OC(=O)C(C)(C)CNC2=O)cc1Cl` [compound 8]: the MTD in the series “in vivo” was not below 10 mg/kg. Also, the “antitumor efficacy (tumor volume)” value in the series with AtT20 tumors was “no therapeutic benefit”. Moreover, in series [1], the “area under the curve (AUC), comparison of 8 with 10” value is “higher”. Moreover, the half-life (as a rule, the time in which the quantity being followed falls by half) in series [1] (female, mouse, plasma, iv, read-out: circulatory half-life) turned out to be 1.73 h.
